# Experimental data published in patent US20240076386A1 (Pfizer, published 2024).
# T1: cynomolgus monkey E-selectin, cell-surface expressed (cynomolgus monkey, UniProt P16581 22-610 (human entry))
# T1 construct: also called CHO-cynomolgus monkey E-selectin cells; cynomolgus monkey CHO-E
# T1 chain: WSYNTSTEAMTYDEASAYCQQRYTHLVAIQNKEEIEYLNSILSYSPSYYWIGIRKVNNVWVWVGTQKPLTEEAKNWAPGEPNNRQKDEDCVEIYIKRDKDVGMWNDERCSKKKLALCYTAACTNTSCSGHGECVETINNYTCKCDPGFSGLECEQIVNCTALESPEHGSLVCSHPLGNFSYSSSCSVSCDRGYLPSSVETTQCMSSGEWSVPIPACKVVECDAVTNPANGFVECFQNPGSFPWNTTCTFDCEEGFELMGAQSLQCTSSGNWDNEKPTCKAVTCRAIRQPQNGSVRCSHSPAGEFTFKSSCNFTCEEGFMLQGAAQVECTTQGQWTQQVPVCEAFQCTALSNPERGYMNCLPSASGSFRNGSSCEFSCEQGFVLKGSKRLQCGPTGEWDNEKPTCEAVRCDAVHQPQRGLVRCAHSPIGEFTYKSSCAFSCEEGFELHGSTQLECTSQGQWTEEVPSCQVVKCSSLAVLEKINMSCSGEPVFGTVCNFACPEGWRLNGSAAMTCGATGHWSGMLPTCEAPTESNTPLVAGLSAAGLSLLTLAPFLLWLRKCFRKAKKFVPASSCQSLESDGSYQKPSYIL
# T2: cynomolgus monkey E-selectin extracellular domain with 10 His purification tail (cynomolgus monkey, UniProt P16581 22-554 (human entry))
# T2 construct: also called cynomolgus E-selectin; truncated cynomolgus monkey E-selectin
# T2 chain: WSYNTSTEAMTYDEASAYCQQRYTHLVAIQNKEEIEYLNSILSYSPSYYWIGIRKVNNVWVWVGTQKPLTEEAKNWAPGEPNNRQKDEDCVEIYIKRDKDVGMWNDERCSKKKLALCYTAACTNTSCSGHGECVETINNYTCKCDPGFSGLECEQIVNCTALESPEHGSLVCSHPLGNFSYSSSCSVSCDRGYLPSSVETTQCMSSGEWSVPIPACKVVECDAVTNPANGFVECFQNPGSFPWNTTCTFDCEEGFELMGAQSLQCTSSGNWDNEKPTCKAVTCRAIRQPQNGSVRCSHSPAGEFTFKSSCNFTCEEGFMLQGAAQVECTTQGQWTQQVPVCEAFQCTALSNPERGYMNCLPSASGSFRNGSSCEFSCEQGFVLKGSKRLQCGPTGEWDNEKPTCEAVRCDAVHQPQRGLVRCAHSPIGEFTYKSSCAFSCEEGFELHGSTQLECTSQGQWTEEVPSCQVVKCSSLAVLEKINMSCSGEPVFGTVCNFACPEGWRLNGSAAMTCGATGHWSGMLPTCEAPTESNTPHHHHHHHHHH
# B1: optimized anti-E-selectin antibody 1444 (antibody, human IgG1, kappa, V domains shown)
# VH: EVQLVESGGGLVQPGGSLRLSCAASGYAIRSAYMHWVRQAPGKGLEWVARIDPANGNTIYVDSVTGRFTISADNAKNSAYLQMNSLRAEDTAVYYCAMDLYSTSEYWGQGTLVTVSS
# VL: DIQMTQSPSSLSASVGDRVTITCKTSQNIERYLNWYQQKPGKAPKLLIYAASSLQSGVPSRFSGSGSGTDFTLTISSLQPEDFATYFCLQDNAWPLTFGQGTKVEIKR
# notes: effector-null human IgG1, kappa
# B2: anti-E-selectin antibody 0158 chimera (antibody, human IgG1, kappa, V domains shown)
# VH: QVQLKESGPGLVQPSETLSLTCTVSGFSISTYNVHWLRQPPGKGLEWMGMMWSGGSPDYNSALKSRLSISRDTSKNQVFLKMNSLQSEDTTTYYCARWGGGFDYWGQGVMVTVSS
# VL: DIVLTQSPTTLSVTPGETVSLSCRASHSIGTNLHWYQQKTNESPRLLIKFTSQSISGIPSRFSASGSGTDFTLNINNVEFDDVSSYFCQQTQSWPLTFGSGTKLEIKR
# notes: rat VH/VL on effector-null human IgG1 and human kappa
# What was measured:
# [1] = molecular target: T1, cynomolgus monkey E-selectin, …; assay: flow cytometry, CHO cells, 6 experiments
# Procedure: Binding studies with CHO cells were performed in duplicate using two rows of a 96-well round bottom plate, whereas, binding studies with primary endothelial cells were performed in a single row of a 96-well V-bottom plate. The plates were centrifuged at 300×g for 2 minutes at 4° C. and the cells were resuspended and blocked by incubation in the CHO buffer for 10 minutes on wet ice. After incubation, the cells were centrifuged at 300×g for 2 minutes at 4° C. to remove the buffer. […] After incubation with the antibody, the cells were washed three times by centrifugation at 300×g for 1 minute at 4° C. and resuspended in cold CHO buffer. The washed cells were resuspended and incubated with 100 μL of 1:1000 dilution of AlexaFluor647-conjugated goat anti-human F(ab′)₂ Fragment (Fcγ fragment specific antibody, [Jackson Innnnunoresearch, 109-606-170] for 45 minutes (CHO cells) or 30 minutes (endothelial cells) on wet ice. The cells were washed three or four times prior to resuspension in CHO buffer for flow cytometric analysis. A Becton Dickinson LSRFortessa instrument using 640 nanometer laser line was used to acquire cell fluorescence data. Geometric mean fluorescence of cells was analyzed by FlowJo software package (FlowJo, LLC) and plotted against antibody concentration. […]
# [2] = molecular target: T1, cynomolgus monkey E-selectin, …; assay: competition ELISA on CHO cells vs sialyl Lewis ligand, further assays
# Procedure: CHO cells expressing E-selectin were seeded at 12,500 cells per well into a 96 well tissue culture plate and incubated at 37° C., 5% CO₂ for 48 hours to form a confluent monolayer. Plates were subsequently washed twice with 200 μL of calcium magnesium free PBS. Anti-E-selectin antibodies or an IgG1 isotype control (IgG control) were added to the assay in the presence of a small synthetic conjugate of biotinylated, sialyl Lewis A polyacrylamide (Carbosynth LLC, OS45446) or sialyl Lewis X polyacrylamide (Glycotech, 01-045) with streptavidin/horseradish peroxidase (100 μL total) and incubated at 37° C., 5% CO₂ for 2 hours. Plates were then washed twice with 200 μL of calcium and magnesium free PBS. Following the incubation, the cells were washed twice with 200 μL of wash buffer containing 2 mM of calcium chloride (50 mM TRIS [trisaminomethane], 150 mM sodium chloride; 0.05% polysorbate 20, pH 7.4; 2 mM calcium chloride). Signal was developed by adding 100 μL of 1-Step Ultra TMB substrate (Thermo Scientific, 34028) and incubating for 30 minutes at room temperature. Reactions were stopped using 2 M of sulfuric acid and absorbance was read at 450 nm (Spectramax M5e). Data were analyzed and graphed using GraphPad Prism software (Version 8.0.2).
# [3] = molecular target: T2, cynomolgus monkey E-selectin …; assay: AlphaLISA competition vs sialyl Lewis A-PAA-biotin; AlphaLISA neutralization assay (ligand competition), not SPR
# Procedure: The neutralization ability of anti-E-selectin antibodies was measured in an AlphaLISA homogenous competition assay. […] This was incubated at room temperature for 15 minutes, followed by addition of 1.4 μL of human, mouse or cynomolgus monkey E-selectin added to a final concentration of 7 nM. This was again incubated at room temperature for 15 minutes. To this, 1.4 μL AlphaLISA beads was added (Ni-donor/SA-acceptor) for a final assay concentration of 10 μg/mL. This was incubated in the dark at room temperate for at least 10 hours. The plates were then read using the AlphaLISA protocol (Envision).
Binder,EC50 [1],IC50 [2],EC50 [3]
B1,0.75 to 1.37 nM,1.49 nM,–
B2,–,–,< 1 nM
